Measured values published in the nanobody polyreactivity screen of Harvey et al. (2022).

test: yeast display, Sf9 membrane polyspecificity reagent, FACS + sequencing; frameworks hold sequencing errors
Method in brief: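 Galactose induction of a Saccharomyces cerevisiae BJ5465 synthetic nanobody display library ran 36–48 hours. The cells were then stained for 1 hour at 4 °C with 10% biotinylated, detergent-solubilized Sf9 membrane reagent, pulled down on streptavidin microbeads and FACS-sorted into low and high (top ~1%) gates on expression and reagent-binding fluorescence. Labels for polyreactivity follow the gate of origin.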

Sequence	polyreactivity (PSR sort gate)
QVQLVESGGGLVQAGGSLRLSCAASGFILDYNTMGWYRQAPGNERELVAAISSSGDTTYYADSVKGRFTISRDNAKNTVYLQMNSLKPEDTAVYYCAREYGDGYEYWGQGTQVTVSS	low polyreactivity
QVQLVESGGGLVQAGGSLRLSCAASGFILDYYAMGWYRQAPGKERELVATITGRGDRTYYADSVKGRFTISRDNAMNTVYLQMNSLKPEDTAVSYCAAGFDGSRHPGFDSWGQGTQVTVSS	low polyreactivity
QVQLVESGGGLVQAGGSLRLSCAASGFILEDYTMGWYRQAPGKERELVAAISSGGTRTYYADSVKGRFTISRDNAKNTVYLQMNSLKPEDTAVYYCTTRRGERGYWGQGTQVTVSS	high polyreactivity
QVQLVESGGGLVQAGGSLRLSCAASGFILFFNAMGWYRAPWKERELVAGITQSGGSTYYADSVKGRFTISRDNAKNPVYLQMNSLKPEDTAVYYCAAELYDRWSRMDYWGQGTQVTVSS	low polyreactivity
QVQLVESGGGLVQAGGSLRLSCAASGFILGRYAMGWYRQAPGKERELVAAISIGGRTNYADSVKGRFTISRDNAKNTVYLQMNSLKPEDTEVYYCAVDRYVTYSLSNSLYEYWGQGTQVTVSS	low polyreactivity
QVQLVESGGGLVQAGGSLRLSCAASGFILGTYAMGWYRQATGKERELVADISWSVGSTYYADSVKGRFTISRDNAKNTVYLQMISLKPEDTAVYYCNADGYTLWYEYDYWGQGTQVTVSS	low polyreactivity
QVQLVESGGGLVQAGGSLRLSCAASGFILGVYAMGWYRQAPGKERELVAAITFSGASTYYADSVKGRFTISRDNAKNTVYLQMNSLKPEDTAVYYCNKTSAYYRYEYWGQGTQVTVSS	low polyreactivity
QVQLVESGGGLVQAGGSLRLSCAASGFILNFYAMGWYRQAPGKERELVAAISTSGGSTYYADSVKGRFTISRDNAKNTVYLQMNSLKPEDTAGYYCAARRARTYHTSSGYRGYYYWGQGTQVTVSS	high polyreactivity
QVQLVESGGGLVQAGGSLRLSCAASGFILWYYTMGWYRQAPGKERELVAVIDWSGDSTYADSVKGRFTISRDNAKNTVYLQMNSLKPEDTAVYYCNKGYPSPQDTYYVPMDYWGQGTQVTVSS	low polyreactivity
QVQLVESGGGLVQAGGSLRLSCAASGFILYSYAMGWYRQAPGKERELVAGISIGGITNYADSVKGRFTISRDNAKNTVYLQMNSLKPEDTAVYYCATDGTTYIWDGDYWGQGTQVTVSS	low polyreactivity
QVQLVESGGGLVQAGGSLRLSCAASGFILYYYAMGWYRQAPGKERELVASISRRGGSTYYADSVKGRFTISRDNAKNTVYLQMNSLKPEDTAVYYCAATETTSRRFGYDYWGQGTQVTVSS	high polyreactivity
QVQLVESGGGLVQAGGSLRLSCAASGFIMDNYAMGCYRQAHGKERELVAAISGSGGSTYYADSVKGRFTISRDNAKNTVYLQMNSLKPEDTAVYYCNRDRLLRQYDYWGQGTQVTVSS	high polyreactivity
QVQLVESGGGLVQAGGSLRLSCAASGFIMDYNTMGGYRQAPGKERELVAAISSSGDTTYYAASVKGRFTISRDNAKNSVYLQMNCLKPDDTAVYYCAREYGDGYEYWGQGTQVTVSS	low polyreactivity
QVQLVESGGGLVQAGGSLRLSCAASGFISAGYAMGWYRQAPGKERELVAAISRRGGRTYYADSVKGRFTISRDNAKNTVYLQLNSLKPEDTAVYYCAAGSPHSAFAGPYDYWGQGTQVTVSS	high polyreactivity
QVQLVESGGGLVQAGGSLRLSCAASGFISARYAMGWYRQAPGKERELVAGISGGGGRTYYADSVKGRFTISRDNAKNTVYLQMNSLKPEDTAVFYCAATLQSRDRRFNYWGQGTQVTVSS	high polyreactivity
QVQLVESGGGLVQAGGSLRLSCAASGFISFPYAMGWYRQAPGKERELDASITRSGGNTYYADSVKGRFTISRDNAKNTVYLQMNRLKPEDTAVYYCNAQIYTYRTGRGYSRLDYWGQGTQVTVSS	high polyreactivity
QVQLVESGGGLVQAGGSLRLSCAASGFISRYYYMGWYRQAPGKERELVAAIRWSGDRTYYADSVKGRFTISRDNAKNTVYLLMNSLKPEDTAVYYCNADVVLGRSWRGYWGQGTQVTVSS	high polyreactivity
QVQLVESGGGLVQAGGSLRLSCAASGFISSDYAMGWYRQAPGKEREFVAGISRGGGSTYYADSVKGRFTISRDHAKNTVYLQMISLKPEDTAVYYCNARTSLRKYQYYYWGQGTQVTVSS	high polyreactivity
QVQLVESGGGLVQAGGSLRLSCAASGFISSHYAMGWYRQAPGKERELVAAISTNGGSTYYADSVKGRFTISRDNAKNTVYLQMNSLKPEDTAVYYCAAEFAVSFYWSWLGQDYNYWGQGTQVTVSS	high polyreactivity
QVQLVESGGGLVQAGGSLRLSCAASGFISTINVMGWYRQAPGKEREMVAAMTYIDGSTFYADSVKGRFTISRDNAKNTVYLQMNSLKPEDTAVYYCAADLYQWGAVFLYVRSTGLDYWGQGTQVTVSS	low polyreactivity
QVQLVESGGGLVQAGGSLRLSCAASGFISYFYAMGWYRQAPGKERELVAAISWNGARTYYADSVKGRFTISRDNAKNTVYLQMNSLKPEDTAVYYCNAGTFTRRRGLDYWGQGTQVTVSS	low polyreactivity

Sequence	polyreactivity (PSR sort gate)
QVQLVESGGGLVQAGGSLRLSCAASGFIVRRYAMGWYRQAPGKERELVAAITSSGTSTYYADSVKGRFTISRDTAKYTVYLQMNSLKPEDTAVYYCAAVYQYTHYYSNYRYWGQGTQVTVSS	high polyreactivity
QVQLVESGGGLVQAGGSLRLSCAASGFIYARYAMGSYRQAPGKERELLAAISWSGARTYYADSVKGRFTISRDNAKNTVYLQMNSLKAEDTAVYYCAARRLSYSYDYWGQGTQVSVSS	high polyreactivity
QVQLVESGGGLVQAGGSLRLSCAASGFIYGKNAMGWYRQAPGKERELVAAISQRGGSTYYADSVKGRFTISRDTAKNTVYLQMNSLKPEDTAVYYCAADGRRVVARYDYWGQVTQVTVSS	high polyreactivity
QVQLVESGGGLVQAGGSLRLSCAASGFIYGYYAKGWYRQAPGKARELVAAISYSGGSTYYADSVKGRFTISRDNAKNTVYLQKNSLKPEDSAVYYCAAVYLGYIYSRYDYWGQGTQVTVSS	low polyreactivity
QVQLVESGGGLVQAGGSLRLSCAASGFIYHTNAMGWYRPAPGKERELVAAISDSADITHYADSVKGRFTISRDYAKNTVYLQMNSLKPEDTAVYYCNTTGDPPAYDFAFEDWGQGTQVTVSS	low polyreactivity
QVQLVESGGGLVQAGGSLRLSCAASGFIYSAYAMGWYRQAPGKERELVAAISYSGGTTYYADSVKGRFTISRDNAKNTVYLQMNSLKPEDTAVYYCAAGVGYWGQGTQVTVSS	high polyreactivity
QVQLVESGGGLVQAGGSLRLSCAASGFIYTRNAMGWDRQAPGQERELVAAITSSGGSTYYADTVKGRFTISRDNAKNTVYLQMNSLKREDTAVYYCARGKSVGFNYWGQGTQVTVSS	high polyreactivity
QVQLVESGGGLVQAGGSLRLSCAASGFNFARNTMGWYRQAPGKERELVAAISSSGGSTYYADSVKGRFTISRDNAKNTVYLQMNSLKPEDTAVYYCNKGYTGLYGYDYWGQGTQVTVSS	high polyreactivity
QVQLVESGGGLVQAGGSLRLSCAASGFNFGTYAMGWYRQAPGKERELVAAISSGGSTYYADSVKGRFTISRDNAKNTVYLQMNSLKPEDTAVYYCAKEGGTYRIFNYWGQGTQVTVSS	low polyreactivity
QVQLVESGGGLVQAGGSLRLSCAASGFNFQGNAMGWYIQAPGNERELVAAISSDGSTYYADSVKGRFTISRDNAKNTVELQMYSLKPEDTAVYYCAAEWWYYYPGYIITSYDYWGQGTQVTVSS	low polyreactivity
QVQLVESGGGLVQAGGSLRLSCAASGFNFQRYAMGWYRQAPGKERELVAAISVRGTRTYYADSVKGRFTISRDKAKNTVYFQMYSLKPVDTAVYYCNADWERDVQDEYWGQGTHVTVSS	high polyreactivity
QVQLVESGGGLVQAGGSLRLSCAASGFNFTGYTMGWYRQAPGTERELVAAISSSGGSTYYADSVKGRFTISRDNAKNTVYLQMNSLKPEDTAVDYCNAPRYRPGYWYDYWGQGTQVNVSS	high polyreactivity
QVQLVESGGGLVQAGGSLRLSCAASGFNFTHYAMGWYRQAPGKERELVAAISRNGGSTYYADSVKGRFTISRDNAKNTVYLQMNSLKPEDTAVYYCAAVRHGVSLAGYYWGQGTQVTVSS	high polyreactivity
QVQLVESGGGLVQAGGSLRLSCAASGFNFTTYAMGSYRHAPGKERELVAAISGRGGTTDYADSVKGRFTISRDNAKNTVYLHMNSLKPEATAVYYCAADGYPGDDYWGQGTQVTVST	high polyreactivity
QVQLVESGGGLVQAGGSLRLSCAASGFNFYCNAMGWYRQAPGKERELVATIRYRGGRTYYADSVKGRFTISRDNEKNTVYLQMNSLKPEDTAVYYCNTRSVYHRYDYDYWGQGTQVTVSS	high polyreactivity
QVQLVESGGGLVQAGGSLRLSCAASGFNFYSNAMGWYRQEPGKERELVADINRGGTSTYYADSVKGRFTISRDNAKNTVYLQMNSLKPEDTAVYYCNAGLRYRSRLWNIYWYDYWGQGTQVTVSS	high polyreactivity
QVQLVESGGGLVQAGGSLRLSCAASGFNLKWYAMGWYRQAPGKERELVAAINDRGGNTYYADSVKGRFTISRDNAKNTVYLQMNSLKPEDTAVYYCAVRGKTYRPYYYWGQGTQVTVSS	high polyreactivity
QVQLVESGGGLVQAGGSLRLSCAASGFNTRLYAMGWYRQAPGKEREFVAAISWDGTRTYYADSVKGRFTISRDTANKTFYLQMNSLKPEDTAVSYCNARRRQWQARYDYWGQGTQITVSS	high polyreactivity
QVQLVESGGGLVQAGGSLRLSCAASGFNVRYYAMGWYRQAPGKERELVAAISSGGNTRYADSVKGRFTISRDNAKNTVYLQMNSLKPEDTAVYYCARRPGAWKYVYTGDYWGQGTQVTVSS	high polyreactivity
QVQLVESGGGLVQAGGSLRLSCAASGFNYRYYAMGWYRQAPGKERELVAAIDYSGGSTNYADSVKGRFTISRDNAKNTVYLQMNSLNPEDTAVYYCNAEYTWHRGYDYWGQGTQVTVSS	low polyreactivity
